Assay results reported in CN117545770A (HOFFMANN LA ROCHE, dated 2024).

B1: HLA-G-0090 (antibody, IgG1, V domains shown)
VH: QVQLQQSGPGLLKPSQTLSLTCAISGDSVSSNRAAWNWIRQSPSRGLEWLGRTYYRSKWYNDYAVSVQGRITLIPDTSKNQFSLRLNSVTPEDTAVYYCASVRAVAPFDYWGQGVLVTVSS
VL: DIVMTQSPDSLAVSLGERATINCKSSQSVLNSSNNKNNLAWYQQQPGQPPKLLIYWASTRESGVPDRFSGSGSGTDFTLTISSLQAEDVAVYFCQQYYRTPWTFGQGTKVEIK
modifications: N-glycosylation at the NSS motif of CDR-L1 (LC positions 31-33; Fab glycosylation found by mass spectrometry); N-glycosylation in CDR-L1 (NSS motif, LC 31-33) is on the light chain, not on this chain
notes: also called 亲代抗体HLA-G-0090
B2: HLA-G-0090-VL-S32P (antibody, V domains shown)
VH: QVQLQQSGPGLLKPSQTLSLTCAISGDSVSSNRAAWNWIRQSPSRGLEWLGRTYYRSKWYNDYAVSVQGRITLIPDTSKNQFSLRLNSVTPEDTAVYYCASVRAVAPFDYWGQGVLVTVSS
VL: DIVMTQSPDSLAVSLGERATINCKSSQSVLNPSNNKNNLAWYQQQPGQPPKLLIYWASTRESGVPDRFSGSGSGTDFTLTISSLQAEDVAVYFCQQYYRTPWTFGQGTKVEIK
notes: also called HLA-G-0090-S32P
B3: HLA-G-0090-VL-S33A (antibody, V domains shown)
VH: QVQLQQSGPGLLKPSQTLSLTCAISGDSVSSNRAAWNWIRQSPSRGLEWLGRTYYRSKWYNDYAVSVQGRITLIPDTSKNQFSLRLNSVTPEDTAVYYCASVRAVAPFDYWGQGVLVTVSS
VL: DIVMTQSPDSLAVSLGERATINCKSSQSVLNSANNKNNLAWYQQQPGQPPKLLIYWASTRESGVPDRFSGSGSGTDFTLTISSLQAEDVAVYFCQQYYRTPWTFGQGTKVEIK
notes: also called HLA-G-0090-S33A
B4: HLA-G-0090-VL-S33P (antibody, IgG1, V domains shown)
VH: QVQLQQSGPGLLKPSQTLSLTCAISGDSVSSNRAAWNWIRQSPSRGLEWLGRTYYRSKWYNDYAVSVQGRITLIPDTSKNQFSLRLNSVTPEDTAVYYCASVRAVAPFDYWGQGVLVTVSS
VL: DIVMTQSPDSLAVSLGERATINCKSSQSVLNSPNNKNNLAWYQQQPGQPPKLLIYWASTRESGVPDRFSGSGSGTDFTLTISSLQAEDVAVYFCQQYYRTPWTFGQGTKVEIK
notes: IgG1 format, HEK293F; also called HLA-G-0090-S33P
B5: HLA-G-0090-VL-S33D (antibody, IgG1, V domains shown)
VH: QVQLQQSGPGLLKPSQTLSLTCAISGDSVSSNRAAWNWIRQSPSRGLEWLGRTYYRSKWYNDYAVSVQGRITLIPDTSKNQFSLRLNSVTPEDTAVYYCASVRAVAPFDYWGQGVLVTVSS
VL: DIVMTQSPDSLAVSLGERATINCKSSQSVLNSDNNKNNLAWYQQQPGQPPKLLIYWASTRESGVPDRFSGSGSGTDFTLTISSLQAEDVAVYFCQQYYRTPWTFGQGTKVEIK
notes: IgG1 format, HEK293F; also called HLA-G-0090--S33D

How the values were obtained:
[1] = target: T1, 重组单链HLA-G单体/人HLA-Gβ2M MHC I类复合物 (SEQ ID NO:39) (human); assay: SPR Biacore T200, 25 °C, multi-cycle kinetics; antibody captured by anti-hFc on CM3 chip, HLA-G complex as analyte; 1:1 Langmuir
T1 construct: also called wt-HLA-G复合物; wt-HLA-G抗原

[2] = target: T1, 重组单链HLA-G单体/人HLA-Gβ2M MHC I类复合物 (SEQ ID …); assay: SPR multi-cycle kinetics

| Binder | t1/2 [1] [min] | fold decrease of binding affinity against HLA-G-0090 [2] [fold] |
| --- | --- | --- |
| B1 | 6.5 | – |
| B2 | 7.34 | – |
| B3 | 7.76 | – |
| B4 | 3.13 | 2 |
| B5 | 1.73 | 5 |
